This note sets out measurements from patent US20200062843A1 (CRAGE MEDICAL, published 2020).

Assay [1] concerns the target T1, human CD19 (UniProt P15391 20-556).
T1 chain: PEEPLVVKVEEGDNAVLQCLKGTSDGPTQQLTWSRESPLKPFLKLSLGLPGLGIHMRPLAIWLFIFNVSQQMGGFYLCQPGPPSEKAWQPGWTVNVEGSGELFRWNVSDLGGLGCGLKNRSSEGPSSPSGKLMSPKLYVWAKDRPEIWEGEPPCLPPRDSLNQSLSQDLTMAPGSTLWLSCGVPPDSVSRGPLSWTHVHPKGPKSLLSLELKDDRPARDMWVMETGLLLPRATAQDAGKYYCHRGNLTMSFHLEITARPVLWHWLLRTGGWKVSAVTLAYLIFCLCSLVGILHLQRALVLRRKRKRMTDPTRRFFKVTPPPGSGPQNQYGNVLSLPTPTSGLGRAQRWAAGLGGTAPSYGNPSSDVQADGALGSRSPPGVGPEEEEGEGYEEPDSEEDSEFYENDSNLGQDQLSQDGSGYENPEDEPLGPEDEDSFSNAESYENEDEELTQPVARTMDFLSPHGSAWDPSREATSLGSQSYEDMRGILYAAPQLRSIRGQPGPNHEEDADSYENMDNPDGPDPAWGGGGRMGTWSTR
The experiment in a line: FACS cell binding; avid.

Assay [2] deals with T2, human CD19 (human, UniProt P15391 20-556).
T2 construct: In the killing assay it is also on Daudi and Raji cells; also called K562-CD19; K562 cells stably transfected with human CD19
T2 sequence: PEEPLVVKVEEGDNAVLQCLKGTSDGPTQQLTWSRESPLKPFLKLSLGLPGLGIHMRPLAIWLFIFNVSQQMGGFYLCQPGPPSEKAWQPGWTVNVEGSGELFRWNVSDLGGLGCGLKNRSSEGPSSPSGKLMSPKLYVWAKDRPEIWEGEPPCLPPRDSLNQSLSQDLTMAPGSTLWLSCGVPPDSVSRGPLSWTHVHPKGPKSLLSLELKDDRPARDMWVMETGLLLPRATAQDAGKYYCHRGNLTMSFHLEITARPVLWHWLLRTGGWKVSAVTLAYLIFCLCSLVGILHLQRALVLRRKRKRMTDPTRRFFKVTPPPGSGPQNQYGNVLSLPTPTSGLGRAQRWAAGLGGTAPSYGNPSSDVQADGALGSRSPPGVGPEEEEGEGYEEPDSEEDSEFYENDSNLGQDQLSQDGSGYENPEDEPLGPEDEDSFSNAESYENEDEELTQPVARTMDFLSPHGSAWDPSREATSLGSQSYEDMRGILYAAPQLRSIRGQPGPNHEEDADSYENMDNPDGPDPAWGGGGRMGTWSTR
The experiment in a line: flow cytometry, scFv_Fc on K562-CD19 cells, FITC anti-human Fc. The method, then:
(§1) K562 cells (K562-CD19) stably expressing human CD19 and K562 were used, and cells were harvested, washed with complete growth medium and plated into U-bottom microtiter plates at approximately 1−5×10⁵ cells/well. The gradient-diluted huHD37 scFv_Fc fusion antibody was incubated with K562-CD19/K562 for 30 minutes on ice, and then incubated with FITC-labeled anti-human Fc as a secondary antibody. After two washing steps, the analysis was performed using Guava easyCyte™ HT System, and the experimental data was processed using GraphPad Prism to obtain an EC50.
K562 cells stably expressing human CD19 (K562-CD19) and K562 were used, and cells were harvested, washed with complete growth medium, and plated into U-bottom microtiter plates at approximately 1−5×10⁵ cells/well. The gradient diluted scFv_Fc fusion antibody was incubated with K562-CD19/K562 for 30 minutes on ice, and then incubated with FITC-labeled anti-human Fc as a secondary antibody. After two washing steps, the analysis was performed using Guava easyCyte™ HT System, and the experimental data was processed using GraphPad Prism to obtain an EC50.

The target of assay [3] is T1, human CD19. The experiment in a line: FACS cell binding; avid.
The target in assay [4] is T2, human CD19. The experiment in a line: flow cytometry on K562-CD19 cells. The method, then:
as §1

Read-outs that look alike come from different tables or passages of the source.

B1: humanized antibody huHD37 (scFv_Fc fusion antibody) (Fc fusion)
scFv: QVQLVQSGAEVKKPGSSVKVSCKASGYTFSSYWMNWVRQAPGQGLEWMGQIWPGDGDTNYNGKFKGRVTITADESTSTAYMELSSLRSEDTAVYYCARRETTTVGRYYYAMDYWGQGTTVTVSSGGGGSGGGGSGGGGSDIVLTQSPASLAVSPGQRATITCKASQSVDYDGDSYLNWYQQKPGQPPKLLIYDASNLVSGVPARFSGSGSGTDFTLTINPVEANDTANYYCQQSTEDPWTFGQGTKVEIKR
notes: also called humanized huHD37; not shown: human IgG1 Fc fragment carried by the eukaryotic expression vector V152
B1 had an EC50 in the assay with human CD19 [1] of 4.7 nM. For the same molecule, in the assay with human CD19 [2], the binding result is listed as “binds”.

B2: clone 6B3 (scFv_Fc) (Fc fusion)
scFv: QVQLVQSGAEVKKPGSSVKVSCKASGYTFSSYWINWVRQAPGQGLEWMGQIWPGDGETHYNGKFKGRVTITADESTSTAYMELSSLRSEDTAVYYCARRETTTVGRYYYAMDYWGQGTTVTVSSGGGGSGGGGSGGGGSDIVLTQSPASLAVSPGQRATITCKASQSVDYDGDSYLNWYQQKPGQPPKLLIYDASNLVSGVPARFSGSGSGTDFTLTINPVEANDTANYYCQQSTEDPWTFGQGTKVEIKR
As to B2, the EC50 with human CD19 [3] came out at 2.74 nM.

B3: clone 8E3 (scFv_Fc) (Fc fusion)
scFv: QVQLVQSGAEVKKPGSSVKVSCKASGYTFSSYWMNWVRQAPGQGLEWMGQIWPGDGDTNYNGKFKGRVTITADESTSTAYMELSSLRSEDTAVYYCARRETTTVGRYYYAMDYWGQGTTVTVSSGGGGSGGGGSGGGGSDIVLTQSPASLAVSPGQRATITCKASHSLDYDGDNYLNWYQQKPGQPPKLLIYDASNLVSGVPARFSGSGSGTDFTLTINPVEANDTANYYCQQSTEDPWTFGQGTKVEIKR
notes: Only the light chain is said to differ from huHD37; not shown: Human Fc fragment of expression vector V152 (and any junction residues to it)
In the case of B3, the EC50 in the assay with human CD19 [3] is 4.72 nM. Also, in the assay with human CD19 [2], the binding result is “binds”.

B4: murine antibody HD37 (scFv chimeric with human IgG1 Fc) (Fc fusion)
VH: QVQLQQSGAELVRPGSSVKISCKASGYAFSSYWMNWVKQRPGQGLEWIGQIWPGDGDTNYNGKFKGKATLTADESSSTAYMQLSSLASEDSAVYFCARRETTTVGRYYYAMDYWGQGTTVTVSS
VL: DIQLTQSPASLAVSLGQRATISCKASQSVDYDGDSYLNWYQQIPGQPPKLLIYDASNLVSGIPPRFSGSGSGTDFTLNIHPVEKVDAATYHCQQSTEDPWTFGGGTKLEIKR
notes: also called parental antibody HD37; parental HD37
B4: the binding result in the assay with human CD19 [4] is on record as “binds”.
